For this series, the system named is HeLa Kyoto. Description: thermal stability score vs G1/S (z-score of summed log2 fold changes over temperatures); higher = more thermally stable than in G1/S.
Setting [1] is: cell cycle stage: early G1 (4.5 h after nocodazole release).

The text below walks through data of the supplement of paper PMC5998384.
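Note: synchronized HeLa Kyoto cells, proteins quantified by TMT10plex mass spectrometry, three biological replicates, mitosis taken 0.5 h after nocodazole release, G1/S directly after double thymidine block.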

“MGKNKLLHPSLVLLLLVLLPTDASVSGKPQYMVLVPSLLHTETTEKGCVLLSYLNETVTVSASLESVRGNRSLFTDLEAENDVLHCVAFAVPKSSSNEEVMFLTVQVKGPTQEFKKRTTVMVKNEDSLVFVQTDKSIYKPGQTVKFRVVSMDENFHPLNELIPLVYIQDPKGNRIAQWQSFQLEGGLKQFSFPLSSEPFQGSYKVVVQKKSGGRTEHPFTVEEFVLPKFEVQVTVPKIITILEEEMNVSVCGLYTYGKPVPGHVTVSICRKYSDASDCHGEDSQAFCEKFSGQLNSHGCFYQQVKTKVFQLKRKEYEMKLHTEAQIQEEGTVVELTGRQSSEITRTITKLSFVKVDSHFRQGIPFFGQVRLVDGKGVPIPNKVIFIRGNEANYYSNATTDEHGLVQFSINTTNVMGTSLTVRVNYKDRSPCYGYQWVSEEHEEAHHTAYLVFSPSKSFVHLEPMSHELPCGHTQTVQAHYILNGGTLLGLKKLSFYYLIMAKGGIVRTGTHGLLVKQEDMKGHFSISIPVKSDIAPVARLLIYAVLPTGDVIGDSAKYDVENCLANKVDLSFSPSQSLPASHAHLRVTAAPQSVCALRAVDQSVLLMKPDAELSASSVYNLLPEKDLTGFPGPLNDQDNEDCINRHNVYINGITYTPVSSTNEKDMYSFLEDMGLKAFTNSKIRKPKMCPQLQQYEMHGPEGLRVGFYESDVMGRGHARLVHVEEPHTETVRKYFPETWIWDLVVVNSAGVAEVGVTVPDTITEWKAGAFCLSEDAGLGISSTASLRAFQPFFVELTMPYSVIRGEAFTLKATVLNYLPKCIRVSVQLEASPAFLAVPVEKEQAPHCICANGRQTVSWAVTPKSLGNVNFTVSAEALESQELCGTEVPSVPEHGRKDTVIKPLLVEPEGLEKETTFNSLLCPSGGEVSEELSLKLPPNVVEESARASVSVLGDILGSAMQNTQNLLQMPYGCGEQNMVLFAPNIYVLDYLNETQQLTPEIKSKAIGYLNTGYQRQLNYKHYDGSYSTFGERYGRNQGNTWLTAFVLKTFAQARAYIFIDEAHITQALIWLSQRQKDNGCFRSSGSLLNNAIKGGVEDEVTLSAYITIALLEIPLTVTHPVVRNALFCLESAWKTAQEGDHGSHVYTKALLAYAFALAGNQDKRKEVLKSLNEEAVKKDNSVHWERPQKPKAPVGHFYEPQAPSAEVEMTSYVLLAYLTAQPAPTSEDLTSATNIVKWITKQQNAQGGFSSTQDTVVALHALSKYGAATFTRTGKAAQVTIQSSGTFSSKFQVDNNNRLLLQQVSLPELPGEYSMKVTGEGCVYLQTSLKYNILPEKEEFPFALGVQTLPQTCDEPKAHTSFQISLSVSYTGSRSASNMAIVDVKMVSGFIPLKPTVKMLERSNHVSRTEVSSNHVLIYLDKVSNQTLSLFFTVLQDVPVRDLKPAIVKVYDYYETDEFAIAEYNAPCSKDLGNA [A2M]” showed a thermal stability score under setting [1] of -2.38 and a thermal stability score (cell cycle stage: mitosis) of -0.965.
In the case of “MGNPENIEDAYVAVIRPKNTASLNSREYRAKSYEILLHEVPIEGQKKKRKKVLLETKLQGNSEITQGILDYVVETTKPISPANQGIRGKRVVLMKKFPLDGEKMGREASLFIVPSVVKDNTKYTYTPGCPIFYCLQDIMRVCSESSTHFATLTARMLIALDKWLDERHAQSHFIPALFRPSPLERIKTNVINPAYATESGQTENSLHMGYSALEIKSKMLALEKADTCIYNPLFGSDLQYTNRVDKVVINPYFGLGAPDYSKIQIPKQEKWQRSMSSVTEDKERQWVDDFPLHRSACEGDSELLSRLLSERFSVNQLDSDHWAPIHYACWYGKVEATRILLEKGKCNPNLLNGQLSSPLHFAAGGGHAEIVQILLNHPETDRHITDQQGRSPLNICEENKQNNWEEAAKLLKEAINKPYEKVRIYRMDGSYRSVELKHGNNTTVQQIMEGMRLSQETQQYFTIWICSENLSLQLKPYHKPLQHVRDWPEILAELTNLDPQRETPQLFLRRDVRLPLEVEKQIEDPLAILILFDEARYNLLKGFYTAPDAKLITLASLLLQIVYGNYESKKHKQGFLNEENLKSIVPVTKLKSKAPHWTNRILHEYKNLSTSEGVSKEMHHLQRMFLQNCWEIPTYGAAFFTGQIFTKASPSNHKVIPVYVGVNIKGLHLLNMETKALLISLKYGCFMWQLGDTDTCFQIHSMENKMSFIVHTKQAGLVVKLLMKLNGQLMPTERNS [KRIT1]”, the thermal stability score was -0.252 under setting [1] and 0.0145 (cell cycle stage: mitosis).
“MGQCGITSSKTVLVFLNLIFWGAAGILCYVGAYVFITYDDYDHFFEDVYTLIPAVVIIAVGALLFIIGLIGCCATIRESRCGLATFVIILLLVFVTEVVVVVLGYVYRAKVENEVDRSIQKVYKTYNGTNPDAASRAIDYVQRQLHCCGIHNYSDWENTDWFKETKNQSVPLSCCRETASNCNGSLAHPSDLYAEGCEALVVKKLQEIMMHVIWAALAFAAIQLLGMLCACIVLCRRSRDPAYELLITGGTYA [TSPAN3]”: the thermal stability score was -0.556 under setting [1] and -0.785 (cell cycle stage: mitosis).
Consider “MKAIIHLTLLALLSVNTATNQGNSADAVTTTETATSGPTVAAADTTETNFPETASTTANTPSFPTATSPAPPIISTHSSSTIPTPAPPIISTHSSSTIPIPTAADSESTTNVNSLATSDIITASSPNDGLITMVPSETQSNNEMSPTTEDNQSSGPPTGTALLETSTLNSTGPSNPCQDDPCADNSLCVKLHNTSFCLCLEGYYYNSSTCKKGKVFPGKISVTVSETFDPEEKHSMAYQDLHSEITSLFKDVFGTSVYGQTVILTVSTSLSPRSEMRADDKFVNVTIVTILAETTSDNEKTVTEKINKAIRSSSSNFLNYDLTLRCDYYGCNQTADDCLNGLACDCKSDLQRPNPQSPFCVASSLKCPDACNAQHKQCLIKKSGGAPECACVPGYQEDANGNCQKCAFGYSGLDCKDKFQLILTIVGTIAGIVILSMIIALIVTARSNNKTKHIEEENLIDEDFQNLKLRSTGFTNLGAEGSVFPKVRITASRDSQMQNPYSRHSSMPRPDY [MUC13]”, for which the thermal stability score runs as follows: under setting [1], -3.46; (cell cycle stage: mitosis) -1.12.
Regarding “MKLPIFIADAFTARAFRGNPAAVCLLENELDEDMHQKIAREMNLSETAFIRKLHPTDNFAQSSCFGLRWFTPASEVPLCGHATLASAAVLFHKIKNMNSTLTFVTLSGELRARRAEDGIVLDLPLYPAHPQDFHEVEDLIKTAIGNTLVQDICYSPDTQKLLVRLSDVYNRSFLENLKVNTENLLQVENTGKVKGLILTLKGEPGGQTQAFDFYSRYFAPWVGVAEDPVTGSAHAVLSSYWSQHLGKKEMHAFQCSHRGGELGISLRPDGRVDIRGGAAVVLEGTLTA [PBLD]”, the thermal stability score by setting is: under setting [1], -0.159; (cell cycle stage: mitosis) 0.989.
For “MKLVFLVLLFLGALGLCLAGRRRSVQWCAVSQPEATKCFQWQRNMRKVRGPPVSCIKRDSPIQCIQAIAENRADAVTLDGGFIYEAGLAPYKLRPVAAEVYGTERQPRTHYYAVAVVKKGGSFQLNELQGLKSCHTGLRRTAGWNVPIGTLRPFLNWTGPPEPIEAAVARFFSASCVPGADKGQFPNLCRLCAGTGENKCAFSSQEPYFSYSGAFKCLRDGAGDVAFIRESTVFEDLSDEAERDEYELLCPDNTRKPVDKFKDCHLARVPSHAVVARSVNGKEDAIWNLLRQAQEKFGKDKSPKFQLFGSPSGQKDLLFKDSAIGFSRVPPRIDSGLYLGSGYFTAIQNLRKSEEEVAARRARVVWCAVGEQELRKCNQWSGLSEGSVTCSSASTTEDCIALVLKGEADAMSLDGGYVYTAGKCGLVPVLAENYKSQQSSDPDPNCVDRPVEGYLAVAVVRRSDTSLTWNSVKGKKSCHTAVDRTAGWNIPMGLLFNQTGSCKFDEYFSQSCAPGSDPRSNLCALCIGDEQGENKCVPNSNERYYGYTGAFRCLAENAGDVAFVKDVTVLQNTDGNNNEAWAKDLKLADFALLCLDGKRKPVTEARSCHLAMAPNHAVVSRMDKVERLKQVLLHQQAKFGRNGSDCPDKFCLFQSETKNLLFNDNTECLARLHGKTTYEKYLGPQYVAGITNLKKCSTSPLLEACEFLRK [LTF]”, the thermal stability score was -3.21 under setting [1] and -1.19 (cell cycle stage: mitosis).
“MNPGFDLSRRNPQEDFELIQRIGSGTYGDVYKARNVNTGELAAIKVIKLEPGEDFAVVQQEIIMMKDCKHPNIVAYFGSYLRRDKLWICMEFCGGGSLQDIYHVTGPLSELQIAYVSRETLQGLYYLHSKGKMHRDIKGANILLTDNGHVKLADFGVSAQITATIAKRKSFIGTPYWMAPEVAAVERKGGYNQLCDLWAVGITAIELAELQPPMFDLHPMRALFLMTKSNFQPPKLKDKMKWSNSFHHFVKMALTKNPKKRPTAEKLLQHPFVTQHLTRSLAIELLDKVNNPDHSTYHDFDDDDPEPLVAVPHRIHSTSRNVREEKTRSEITFGQVKFDPPLRKETEPHHELPDSDGFLDSSEEIYYTARSNLDLQLEYGQGHQGGYFLGANKSLLKSVEEELHQRGHVAHLEDDEGDDDESKHSTLKAKIPPPLPPKPKSIFIPQEMHSTEDENQGTIKRCPMSGSPAKPSQVPPRPPPPRLPPHKPVALGNGMSSFQLNGERDGSLCQQQNEHRGTNLSRKEKKDVPKPISNGLPPTPKVHMGACFSKVFNGCPLKIHCASSWINPDTRDQYLIFGAEEGIYTLNLNELHETSMEQLFPRRCTWLYVMNNCLLSISGKASQLYSHNLPGLFDYARQMQKLPVAIPAHKLPDRILPRKFSVSAKIPETKWCQKCCVVRNPYTGHKYLCGALQTSIVLLEWVEPMQKFMLIKHIDFPIPCPLRMFEMLVVPEQEYPLVCVGVSRGRDFNQVVRFETVNPNSTSSWFTESDTPQTNVTHVTQLERDTILVCLDCCIKIVNLQGRLKSSRKLSSELTFDFQIESIVCLQDSVLAFWKHGMQGRSFRSNEVTQEISDSTRIFRLLGSDRVVVLESRPTDNPTANSNLYILAGHENSY [MAP4K3]” came in with a thermal stability score under setting [1] of 0.473 and a thermal stability score (cell cycle stage: mitosis) of 0.693.
As to “MNRESFAAGERLVSPAYVRQGCEARRSHEHLIRLLLEKGKCPENGWDESTLELFLHELAIMDSNNFLGNCGVGEREGRVASALVARRHYRFIHGIGRSGDISAVQPKAAGSSLLNKITNSLVLDIIKLAGVHTVANCFVVPMATGMSLTLCFLTLRHKRPKAKYIIWPRIDQKSCFKSMITAGFEPVVIENVLEGDELRTDLKAVEAKVQELGPDCILCIHSTTSCFAPRVPDRLEELAVICANYDIPHIVNNAYGVQSSKCMHLIQQGARVGRIDAFVQSLDKNFMVPVGGAIIAGFNDSFIQEISKMYPGRASASPSLDVLITLLSLGSNGYKKLLKERKEMFSYLSNQIKKLSEAYNERLLHTPHNPISLAMTLKTLDEHRDKAVTQLGSMLFTRQVSGARVVPLGSMQTVSGYTFRGFMSHTNNYPCAYLNAASAIGMKMQDVDLFIKRLDRCLKAVRKERSKESDDNYDKTEDVDIEEMALKLDNVLLDTYQDASS [SEPSECS]”, the thermal stability score runs as follows: under setting [1], -1.52; (cell cycle stage: mitosis) -1.62.
